Source: patent US20120269817A1 (Bayer, published 2012)

T1: human tissue factor pathway inhibitor (TFPI) (human, UniProt P10646 29-304, limits assumed)
T1 construct: Bought protein; also called human TFPI; hTFPI
T1 sequence (looked up): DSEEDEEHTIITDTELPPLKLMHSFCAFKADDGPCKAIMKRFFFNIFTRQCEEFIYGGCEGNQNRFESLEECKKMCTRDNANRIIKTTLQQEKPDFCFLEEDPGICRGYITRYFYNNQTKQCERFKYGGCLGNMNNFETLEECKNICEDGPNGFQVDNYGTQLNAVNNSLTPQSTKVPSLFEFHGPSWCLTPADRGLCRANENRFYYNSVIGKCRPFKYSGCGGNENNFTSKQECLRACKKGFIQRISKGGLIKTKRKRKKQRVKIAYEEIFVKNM

T2: mouse tissue factor pathway inhibitor (TFPI) (mouse, UniProt O54819 29-289, limits assumed)
T2 construct: Bought protein; also called mouse TFPI; mTFPI
T2 sequence (looked up): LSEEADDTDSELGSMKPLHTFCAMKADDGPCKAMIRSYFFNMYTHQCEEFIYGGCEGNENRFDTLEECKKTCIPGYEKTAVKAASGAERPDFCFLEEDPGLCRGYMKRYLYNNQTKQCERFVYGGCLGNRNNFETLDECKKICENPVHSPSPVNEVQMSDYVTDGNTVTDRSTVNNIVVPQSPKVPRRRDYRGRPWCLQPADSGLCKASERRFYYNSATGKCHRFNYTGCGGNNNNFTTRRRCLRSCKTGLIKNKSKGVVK


Experiments:
[1] = molecular target: T1, human tissue factor pathway inhibitor …; assay: Biacore, TFPI on CM5 chip, Fab in mobile phase
Procedure: (§1) Purified Fab antibodies were used to determine EC₅₀ of anti-TFPI antibodies to human or mouse TFPI. EC₅₀ was assessed in an ELISA, similarly as described above. The results were analyzed using SoftMax. The binding affinity of anti-TFPI antibodies was determined in a Biacore assay. Briefly, the antigen, either human or mouse TFPI, was immobilized on the CM5-chips using the amine coupling kit (GE HealthCare) according to the instructions of the manufacturer. The amount of immobilized TFPI was adjusted to the mass of the antigen to give approximate 300 RU. The antibody Fabs were analyzed in mobile phase and at least five different concentrations (0.1, 0.4, 1.6, 6.4 and 25 nM) of the purified antibodies were used in the Biacore assay. The kinetics and binding affinity were calculated using Biacore T100 Evaluation software.

[2] = molecular target: T2, mouse tissue factor pathway inhibitor …; assay: Biacore, TFPI on CM5 chip, Fab in mobile phase
Procedure: as §1

[3] = molecular target: T3, BSA (bovine, UniProt P02769 25-607); assay: ELISA
T3 construct: also called bovine serum albumin
T3 sequence (P02769 25-607 limits assumed): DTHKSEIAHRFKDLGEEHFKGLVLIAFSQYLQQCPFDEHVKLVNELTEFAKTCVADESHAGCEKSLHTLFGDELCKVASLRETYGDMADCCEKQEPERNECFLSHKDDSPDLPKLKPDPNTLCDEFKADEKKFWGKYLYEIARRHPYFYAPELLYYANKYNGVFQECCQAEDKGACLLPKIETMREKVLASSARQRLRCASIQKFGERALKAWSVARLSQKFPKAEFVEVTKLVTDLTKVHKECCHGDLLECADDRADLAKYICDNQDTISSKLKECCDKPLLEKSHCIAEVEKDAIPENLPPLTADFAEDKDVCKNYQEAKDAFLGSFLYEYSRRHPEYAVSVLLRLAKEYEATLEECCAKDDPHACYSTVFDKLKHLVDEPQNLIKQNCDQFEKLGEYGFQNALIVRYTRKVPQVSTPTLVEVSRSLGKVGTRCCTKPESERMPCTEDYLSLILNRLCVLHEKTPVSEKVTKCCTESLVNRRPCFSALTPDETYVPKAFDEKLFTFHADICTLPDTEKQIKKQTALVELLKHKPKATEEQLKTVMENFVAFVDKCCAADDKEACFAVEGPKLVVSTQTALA
Procedure: (§2) To select antibody clones that bind to human TFPI, Fab genes of the phage clones from the second and third round of panning were subcloned into a bacterial expression vector and expressed in E. coli strain TG1. The bacterial lysate was added to the wells of the human TFPI-coated Maxisorp plates. After washing, HRP-conjugated goat anti-human Fab was used as a detection antibody and the plates were developed by adding AmplexRed (Invitrogen) with hydrogen peroxide. A signal of at least five-fold higher than the background was considered as positive. The cross reactivity of the anti-human TFPI antibodies to mouse TFPI was determined by a similar mouse TFPI-binding ELISA. The plates were coated with mouse TFPI (R&D System), BSA and lysozyme. The later two antigens were used as negative controls.

[4] = molecular target: T1, human tissue factor pathway inhibitor …; assay: ELISA, Fab on coated TFPI
Procedure: as §2, §1

[5] = molecular target: T2, mouse tissue factor pathway inhibitor …; assay: ELISA, Fab on coated TFPI
Procedure: as §2, §1

[6] = molecular target: T1, human tissue factor pathway inhibitor …; assay: cell-based or functional assay
[7] = molecular target: T1, human tissue factor pathway inhibitor …; assay: ELISA, Fab lysate on coated human TFPI
Procedure: as §2

Row | Binder | Kd [1] [nM] | Kd [2] [nM] | binding result [3] | EC50 [4] [nM] | EC50 [5] [nM] | % inhibition of hTFPI activity [6] [%] | dPT in hemoA plasma [6] [s] | binding result [7]
1 | TP-2G5 Fab (Fab, V domains shown, Human Fab from HuCal Gold, expressed in E. coli TG1) VH: QVQLQQSGPGLVKPSQTLSLTCAISGDSVSSNSAAWSWIRQSPGRGLEWLGFIYYRSKWYNDYAVSVKSRITINPDTSKNQFSLQLNSVTPEDTAVYYCARHNPDLGFDYWGQGTLVTVSS VL: not shown | 42.1 | 16.1 | no binding | 343 | 871 | 36 | 73.2 | –
2 | TP-3H2 Fab (Fab, V domains shown, Human Fab from HuCal Gold, expressed in E. coli TG1) VH: QVQLVESGGGLVQPGGSLRLSCAASGFTFNSYYMSWVRQAPGKGLEWVSNISSSGSNTNYADSVKGRFTISRDNSKNTLYLQMNSLRAEDTAVYYCARVHYGFDFWGQGTLVTVSS VL: DIELTQPPSVSVAPGQTARISCSGDKLGKYYAYWYQQKPGQAPVLVIYGDSKRPSGIPERFSGSNSGNTATLTISGTQAEDEADYYCSSAAFGSTVFGGGTKLTVLG | – | – | no binding | – | – | – | – | binds
3 | TP-3D3 Fab (Fab, V domains shown, Human Fab from HuCal Gold, expressed in E. coli TG1) VH: QVQLVESGGGLVQPGGSLRLSCAASGFTFSSYASWVRQAPGKGLEWVSGISGDGSNTHYADSVKGRFTISRDNSKNTLYLQMNSLRAEDTAVYYCARYDNFYFDVWGQGTLVTVSS VL: DIELTQPPSVSVAPGQTARISCSGDSLGSKFAHWYQQKPGQAPVLVIYDDSNRPSGIPERFSGSNSGNTATLTISGTQAEDEADYYCSTYTSRSHSYVFGGGTKLTVLG | – | – | no binding | – | – | – | – | binds
4 | TP-4A7 Fab (Fab, V domains shown, Human Fab from HuCal Gold, expressed in E. coli TG1) VH: QVQLVESGGGLVQPGGSLRLSCAASGFTFRNYAMNWVRQAPGKGLEWVSVISGSSSYTYYADSVKGRFTISRDNSKNTLYLQMNSLRAEDTAVYYCARADLPYMVFDYWGQGTLVTVSS VL: DIELTQPPSVSVAPGQTARISCSGDALGSKFAHWYQQKPGQAPVLVIYDDSERPSGIPERFSGSNSGNTATLTISGTQAEDEADYYCQAYDSGLLYVFGGGTKLTVLG | – | – | no binding | – | – | – | – | binds
5 | TP-2A8 Fab (Fab, V domains shown, Human Fab from HuCal Gold, expressed in E. coli TG1; also called Fab-2A8) VH: QVQLVESGGGLVQPGGSLRLSCAASGFTFRSYGMSWVRQAPGKGLEWVSSIRGSSSSTYYADSVKGRFTISRDNSKNTLYLQMNSLRAEDTAVYYCARKYRYWFDYWGQGTLVTVSS VL: DIELTQPPSVSVAPGQTARISCSGDNLRNYYAHWYQQKPGQAPVVVIYYDNNRPSGIPERFSGSNSGNTATLTISGTQAEDEADYYCQSWDDGVPVFGGGTKLTVLG | 1.25 | 3.08 | no binding | 0.09 | 0.06 | 100 | 57.9 | –
6 | TP-3C2 Fab (Fab, V domains shown, Human Fab from HuCal Gold, expressed in E. coli TG1) VH: QVQLQQSGPGLVKPSQTLSLTCAISGDSVSSSSAAWSWIRQSPGRGLEWLGMIYYRSKWYNHYAVSVKSRITINPDTSKNQFSLQLNSVTPEDTAVYYCARGGSGVMDVWGQGTLVTVSS VL: DIQMTQSPSSLSASVGDRVTITCRASQSITNYLNWYQQKPGKAPKLLIYDVSNLQSGVPSRFSGSGSGTDFTLTISSLQPEDFAVYYCQQYSGYPLTFGQGTKVEIKR | 17.1 | 28.5 | no binding | 59 | 957 | 92 | 68.9 | –
7 | TP-2G6 Fab (Fab, V domains shown, Human Fab from HuCal Gold, expressed in E. coli TG1) VH: QVQLQQSGPGLVKPSQTLSLTCAISGDSVSSSSAAWSWIRQSPGRGLEWLGIIYYRSKWYNDYAVSVKSRITINPDTSKNQFSLQLNSVTPEDTAVYYCARHSMVGFDVWGQGTLVTVSS VL: DIVLTQSPATLSLSPGERATLSCRASQYVTSSYLAWYQQKPGQAPRLLIYGSSRATGVPARFSGSGSGTDFTLTISSLEPEDFATYYCQQYSSSPITFGQGTKVEIKR | 5.06 | 46.1 | no binding | 0.48 | 5.18 | 86 | 62.8 | –
8 | TP-3B4 Fab (Fab, V domains shown, Human Fab from HuCal Gold, expressed in E. coli TG1) VH: QVQLQQSGPGLVKPSQTLSLTCAISGDSVSSNGAAWGWIRQSPGRGLEWLGHIYYRSKWYNSYAVSVKSRITINPDTSKNQFSLQLNSVTPEDTAVYYCARWGGIHDGDIYFDYWGQGTLVTVSS VL: DIQMTQSPSSLSASVGDRVTITCRASQNISNYLNWYQQKPGKAPKLLIYGTSSLQSGVPSRFSGSGSGTDFTLTISSLQPEDFAVYYCQQYGNNPTTFGQGTKVEIKR | 14.1 | 20.4 | no binding | 35.8 | 34.6 | 25 | 69.1 | –
9 | TP-2H10 Fab (Fab, V domains shown, Human Fab from HuCal Gold, expressed in E. coli TG1) VH: QVQLQQSGPGLVKPSQTLSLTCAISGDSVSSNGAAWGWIRQSPGRGLEWLGFIYRRSKWYNSYAVSVKSRITINPDTSKNQFSLQLNSVTPEDTAVYYCARQDGMGGMDSWGQGTLVTVSS VL: not shown | 10.2 | 11.5 | no binding | 2.18 | 32.4 | 63 | 79.5 | –

Now from value to binder:

Row | Kd [1] [nM] | Kd [2] [nM] | binding result [3] | EC50 [4] [nM] | EC50 [5] [nM] | % inhibition of hTFPI activity [6] [%] | dPT in hemoA plasma [6] [s] | binding result [7] | Binder
10 | 35.4 | 19.6 | no binding | 28.6 | 14.5 | 30 | 70.8 | – | TP-2A5.1 Fab (Fab, V domains shown, Human Fab from HuCal Gold, expressed in E. coli TG1) VH: QVQLVESGGGLVQPGGSLRLSCAASGFTFSSYGSWVRQAPGKGLEWVSVISGSGSSTYYADSVKGRFTISRDNSKNTLYLQMNSLRAEDTAVYYCARVNISTHFDVWGQGTLVTVSS VL: DIELTQPPSVSVAPGQTARISCSGDNIPEKYVHWYQQKPGQAPVLVIHGDNNRPSGIPERFSGSNSGNTATLTISGTQAEDEADYYCQSFDAGSYFVFGGGTKLTVLG
11 | – | – | no binding | – | – | – | – | binds | TP-3E1 Fab (Fab, V domains shown, Human Fab from HuCal Gold, expressed in E. coli TG1) VH: QVQLVESGGGLVQPGGSLRLSCAASGFTFSNYAMTWVRQAPGKGLEWVSVISSVGSNTYYADSVKGRFTISRDNSKNTLYLQMNSLRAEDTAVYYCARPTKAGRTWWWGPYMDVWGQGTLVTVSS VL: DIELTQPPSVSVAPGQTARISCSGDNIGSYYAYWYQQKPGQAPVLVIYDDSNRPSGIPERFSGSNSGNTATLTISGTQAEDEADYYCQSYDSTGLLVFGGGTKLTVLG
12 | 7.4 | 27 | no binding | 0.84 | 20.2 | 100 | 74 | – | TP-2B3 Fab (Fab, V domains shown, Human Fab from HuCal Gold, expressed in E. coli TG1) VH: QVQLQQSGPGLVKPSQTLSLTCAISGDSVSSNSAAWGWIRQSPGRGLEWLGMIYYRSKWYNSYAVSVKSRITINPDTSKNQFSLQLNSVTPEDTAVYYCARTMSKYGGPGMDVWGQGTLVTVSS VL: DIVLTQSPATLSLSPGERATLSCRASQNIGSNYLAWYQQKPGQAPRLLIYGASTRATGVPARFNGSGSGTDFTLTISSLEPEDFAVYYCQQLNSIPVTFGQGTKVEIKR
13 | – | – | no binding | – | – | – | – | binds | TP-3F2 Fab (Fab, V domains shown, Human Fab from HuCal Gold, expressed in E. coli TG1) VH: QVQLVESGGGLVQPGGSLRLSCAASGFTFSSYSMHWVRQAPGKGLEWVSGISYSSSFTYYADSVKGRFTISRDNSKNTLYLQMNSLRAEDTAVYYCARALGGGVDYWGQGTLVTVSS VL: DIELTQPPSVSVAPGQTARISCSGDNLPSKSVYWYQQKPGQAPVLVIYGDNNRPSGIPERFSGSNSGNTATLTISGTQAEDEADYYCQSWTSRPMVVFGGGTKLTVLG
